# Measured values published in the supplement of paper PMC11811203.
# B1: THAP1; numbered along this chain (parent)
# chain: MVQSCSAYGCKNRYDKDKPVSFHKFPLTRPSLCKEWEAAVRRKNFKPTKYSSICSEHFTPDCFKRECNNKLLKENAVPTIFLCTEPHDKKEDLLEPQEQLPPPPLPPPVSQVDAAIGLLMPPLQTPVNLSVFCDHNYTVEDTMHQRKRIHQLEQQVEKLRKKLKTAQQRCRRQERQLEKLKEVVHFQKEKDDVSERGYVILPNDYFEIVEVPA
# Variants of: B1
# Experiment: THAP1 transcriptional activity (GFP+/GFP- enrichment relative to wild-type constructs) (ratio to WT); higher = more THAP1 activity (PSMB5 reporter activation)
# Details: with PSMB5 promoter-GFP reporter
# In short: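 Variants were counted by Illumina sequencing of genomic DNA amplicons from BFP+ cells sorted into GFP-bright and GFP-dim bins five days after lentiviral transduction, in duplicate at MOI ~0.3. The library changed each of residues 2–213 of human THAP1 to all 20 amino acids and was introduced into THAP1-knockout HEK-293T cells with mClover3 knocked in at endogenous PSMB5. Activity equals the replicate-mean bright/dim read fold change over the mean of wild-type synonymous constructs.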
row,Variant,THAP1 transcriptional activity
1,L177P,0.192
2,C133T,0.872
3,F81T,0.207
4,F81N,0.75
5,D204V,1.39
6,D204A,1.26
7,K73P,0.102
8,K73M,0.543
9,N203P,0.855
10,N203I,1.01
11,T142D,0.738
12,T142H,0.658
13,L129G,0.706
14,L129Y,0.843
15,L129V,0.92
16,L129D,0.405
17,L129N,1.4
18,F25V,0.0907
19,F25G,0.182
20,F25Y,0.203
21,F25P,0.105
22,P121W,0.0793
23,P121S,0.441
24,N44A,0.194

row,Variant,THAP1 transcriptional activity
1,N44R,0.178
2,N44C,0.476
3,L82Y,1.46
4,L82G,1.31
5,T28H,0.391
6,T28R,1.03
7,Q151N,0.636
8,Q151G,0.864
9,S31F,0.363
10,S31H,0.565
11,S31P,0.204
12,D191G,1.05
13,E195I,0.587
14,K162V,0.232
15,K162L,0.417
16,E37Y,0.252
17,Y198N,1.66
18,D113Q,0.7
19,R29E,0.127
20,S6H,0.106
21,Y8L,0.795
22,Y8V,0.472
23,Y8M,0.368
24,P108D,1.66

row,Variant,THAP1 transcriptional activity
1,P108Y,0.559
2,D141T,0.642
3,D141G,0.809
4,D141N,0.776
5,D141Q,0.581
6,K89D,1.33
7,K89W,0.592
8,S194T,0.865
9,L32C,0.199
10,Q176W,0.223
11,E174P,0.189
12,E174V,0.568
13,N75F,0.875
14,N75G,1.42
15,N75K,0.45
16,P78F,0.267
17,P78D,0.183
18,P78V,0.191
19,C83E,0.913
20,D92M,0.739
21,D92C,0.866
22,P103S,1.1
23,P103F,0.27
24,P103N,0.938

row,Variant,THAP1 transcriptional activity
1,E140L,1.81
2,V77C,0.434
3,R41K,1.05
4,R41S,0.809
5,P26L,0.104
6,P26W,0.0853
7,Y50R,0.09
8,Y50S,0.268
9,E157W,0.741
10,C10N,0.121
11,C10V,0.175
12,L163N,0.134
13,L163F,0.23
14,L163A,0.118
15,E98V,1.56
16,E98D,1.77
17,I208G,0.803
18,I208K,0.59
19,I208N,0.926
20,V131E,0.239
21,G9H,0.283
22,K43F,0.153
23,K43E,0.598
24,F45G,0.0858

row,Variant,THAP1 transcriptional activity
1,F45R,0.146
2,L119V,0.5
3,L119G,0.614
4,C33Y,0.162
5,W36V,0.138
6,S55Y,0.109
7,S55L,0.106
8,Q111L,0.357
9,K34F,0.281
10,K147V,0.383
11,K147S,0.621
12,K147L,0.458
13,K147D,0.605
14,D17W,0.509
15,D17H,1.05
16,K18H,0.202
17,K18D,0.0802
18,K18P,0.0831
19,A38I,0.735
20,S21G,0.164
21,N136I,0.149
22,N136D,0.153
23,N136G,0.109
24,P47Q,0.104

row,Variant,THAP1 transcriptional activity
1,P47E,0.173
2,P47A,0.896
3,N68K,0.162
4,A76F,0.307
5,A76Y,0.191
6,Q173F,0.425
7,Y137W,0.0825
8,K164W,0.146
9,D134P,0.296
10,D134Y,0.166
11,E182S,0.933
12,E182F,0.467
13,E182I,0.428
14,P96C,0.965
15,P212Q,1.45
16,Q187G,0.874
17,Q187E,0.824
18,V199Y,0.918
19,V199E,0.701
20,V199Q,0.623
21,G197I,1.03
22,V209I,0.823
23,H185M,0.723
24,G117A,0.485

row,Variant,THAP1 transcriptional activity
1,G117I,0.169
2,G117R,0.476
3,Q97F,1.2
4,S4N,0.14
5,S4H,0.111
6,I116H,0.735
7,I116W,0.472
8,I116Y,0.918
9,T125D,0.713
10,T125K,1.4
11,Q167P,0.13
12,Q167T,0.585
13,Q124H,0.399
14,Q124N,0.579
15,C54R,0.0929
16,C54E,0.0874
17,H144E,0.421
18,K158R,0.941
19,R171M,0.36
20,R171V,0.142
21,C5R,0.132
22,Y205G,1.84
23,P60L,0.35
24,P60E,0.745

row,Variant,THAP1 transcriptional activity
1,T84R,1.39
2,T84I,0.739
3,E178T,1.26
4,Q145L,0.544
5,Q145H,0.747
6,E85S,1.35
7,E85G,1.14
8,E85F,0.389
9,A114V,0.296
10,R13K,0.211
11,R13W,0.232
12,R13A,0.17
13,Q3H,1.01
14,D88E,1.04
15,D88S,1.92
16,P104M,0.907
17,P104F,0.865
18,P104R,0.888
19,V112N,1.3
20,V112C,1.08
21,F63T,0.128
22,A166D,0.217
23,E153G,0.412
24,E153V,0.395

row,Variant,THAP1 transcriptional activity
1,T138Q,0.224
2,T138C,2.63
3,K181W,0.418
4,K181L,0.421
5,K181P,0.152
6,T79L,0.628
7,F58I,0.0956
8,V156H,0.201
9,V156G,0.25
10,L123N,1.54
11,L123W,0.642
12,L123P,1.05
13,A115Q,0.738
14,L118V,0.976
15,L118E,0.947
16,V183T,1.02
17,V183D,0.954
18,V183H,0.519
19,K64G,0.219
20,K64M,0.112
21,I53M,0.194
22,I53S,0.112
23,K24S,0.088
24,K24V,0.121

row,Variant,THAP1 transcriptional activity
1,K24Y,0.11
2,L93A,1.26
3,L93D,1.14
4,P101T,1.5
5,V139A,0.763
6,L27G,0.0873
7,P106W,0.703
8,P106V,1.39
9,P106I,1.07
10,Y14V,0.151
11,Y14T,0.0786
12,E74G,0.501
13,E74I,0.327
14,E74F,1.09
15,E74L,0.384
16,N69A,0.111
17,N69Y,0.261
18,H87C,1.84
19,H87T,2.56
20,F186K,1.59
21,F186S,1.93
22,C62I,0.09
23,C170P,0.15
24,C170W,0.208

row,Variant,THAP1 transcriptional activity
1,I200Y,0.548
2,F22A,0.115
3,L71S,0.483
4,L71P,0.113
5,F132K,1
6,F132C,0.597
7,V193G,1.08
8,V193L,1.21
9,V193N,1.24
10,V193M,0.559
11,E91Q,1.02
12,E91A,0.844
13,E56H,0.253
14,M120R,0.835
15,R169L,0.45
16,L100C,0.796
17,L100I,1.56
18,T59M,0.544
19,T59H,0.511
20,D15I,0.436
21,D15K,0.704
22,D15A,0.754
23,D15P,0.107
24,K70V,0.479

row,Variant,THAP1 transcriptional activity
1,K70Q,0.437
2,L201G,0.813
3,S52C,1.57
4,S52K,0.641
5,H150G,0.721
6,Q168W,0.157
7,T48H,0.102
8,T48N,0.545
9,T48S,0.729
10,T48D,0.113
11,V127T,0.875
12,D192N,0.81
13,E210C,1.03
14,E210G,0.666
15,Q99V,0.773
16,Q99G,1.87
17,H57A,0.116
18,H57V,0.105
19,H57G,0.0681
20,Q154M,1.17
21,Q154I,0.779
22,E95L,0.979
23,E95Y,1.04
24,P107M,1.29

row,Variant,THAP1 transcriptional activity
1,P107A,1.2
2,P107D,1.21
3,P107C,0.851
4,P126N,0.551
5,P126G,0.386
6,L159W,0.164
7,L159C,0.151
8,L159E,0.147
9,L159F,0.337
10,L159P,0.158
11,L159V,0.327
12,T165Q,0.517
13,T165P,0.196
14,C67E,0.119
15,C67R,0.502
16,N128K,0.645
17,P19Y,0.197
18,P19G,0.547
19,P19H,0.266
20,K179C,0.34
21,D61T,0.368
22,K11Q,0.354
23,K11A,0.284
24,R65E,0.629

row,Variant,THAP1 transcriptional activity
1,R65T,0.797
2,P122C,0.319
3,P122L,0.692
4,P202L,0.884
5,M143E,0.983
6,L180Y,0.439
7,L180V,0.58
8,R146N,0.584
9,R146W,0.39
10,R146M,0.595
11,R146Q,0.849
12,F206T,1.04
13,S130R,0.271
14,S130E,0.224
15,S130L,0.324
16,S130W,0.276
17,L105K,1.34
18,L105T,1.56
19,E35M,0.787
20,E35I,0.451
21,S51M,0.26
22,S51Q,0.0846
